This is an account of results in the nanobody polyreactivity screen of Harvey et al. (2022).

The data set in a line: yeast display, Sf9 membrane polyspecificity reagent, FACS + sequencing; frameworks hold sequencing errors. The method, boiled down:
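In a synthetic yeast display library (Saccharomyces cerevisiae BJ5465), nanobody expression was induced with galactose for 36–48 hours. FACS gates were set low and high (top ~1%) using anti-HA fluorescence for expression and streptavidin fluorescence for binding of the Sf9 membrane reagent. Each polyreactivity label is drawn from the gate of origin.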
As to “QVQLVESGGGLVQAGGSLRLSCAASGRTFSYYTMGRYRQAPGKERELVARISNRGTNTYYADSVKGRFTISRDHAKNSVNLQMNSLKTEDTAVFYCAKYYYTSIVGYDYWGQGTQVTVSS”, the “polyreactivity (PSR sort gate)” value is recorded as “low polyreactivity”.
With “QVQLVESGGGLVQAGGSLRLSCAASGRTFSYYTMGWSRQAPGKERQLVARISNRGTNTYYADSVKGRFTISRDNAKNTVYLQMNSLIPEDTGVYYCAKYYYTSIVGYDSWGQGTQVTVSS” the entry was “low polyreactivity”; with “QVQLVESGGGLVQAGGSLRLSCAASGRTFSYYTMGWYRQAPGKERDLVAGIRSAGSTYYADSVKGRFTISRDNAKNTVYLLMNSLKPEDTAVYYCAARPYGGGRRSIYYYWGQGTQVTVSS”, “high polyreactivity”.
The entry for “QVQLVESGGGLVQAGGSLRLSCAASGRTFTAYAMGWYRQAPGKERELVAAITTSGGTTYYADSVKGRFTISRDNAKNTVYLQMNSLKPEDTAVYYCAADVVVSWWLIYDYWGQGTQVTVSS” is “low polyreactivity”; for “QVQLVESGGGLVQAGGSLRLSCAASGRTFTAYAMGWYRQAPGKERELVAAITVSTSSTFYADSVKGRFTISRDNAKNTVYLQMNSLKPEDTAVYYCNKETLYPLDYWGEGTQVTVSS” it is “low polyreactivity”; for “QVQLVESGGGLVQAGGSLRLSCAASGRTFTEYAMGWYRQAPGKERELVARISIGDSTYYADSVKGRFTISRDNAKNTVYLQMNSLKPEDTAVYYCNAEYSRSYRYDECYWGQGTQVTVSS” it is “low polyreactivity”.
Regarding “QVQLVESGGGLVQAGGSLRLSCAASGRTFTEYAMGWYRQAPGKERELVARISIGDSTYYADSVKGRFTISRDNAKNTVYLQMNSLKPEDTAVYYCNAEYSRSYRYDEGYWGQGTQVTVSS”, the “polyreactivity (PSR sort gate)” value is given as “low polyreactivity”.
In the case of “QVQLVESGGGLVQAGGSLRLSCAASGRTFTFNAMGWYRQAPGKERELVAAITRSGGRTYYADSVKGRFTISRDNAKNTVYLQMNSLKPEDTAVYYCAAEWEYSWYDYDYWGQGTQVTVSS”, the “polyreactivity (PSR sort gate)” value is “high polyreactivity”.
For the sequence “QVQLVESGGGLVQAGGSLRLSCAASGRTFTFNSMGGYRQAPGKERELFSRIDWRGITYADSVKGRFTISRDNAKYTVYLQMNSLKPEVTAVYYCSATFIQVVVNVQLYDYDYWGQGTQVTVSS”, the “polyreactivity (PSR sort gate)” value was “low polyreactivity”.
As to “QVQLVESGGGLVQAGGSLRLSCAASGRTFTFNTMGWYRQAPGKERELVAAITISDGRTYYADSVKGRFTISRDNAKNTVYLQMNSLKREVTAVYYCAAVQKYGYYWRHNDYWGQGTQVTVSS”, the “polyreactivity (PSR sort gate)” value was “low polyreactivity”.
The entry for “QVQLVESGGGLVQAGGSLRLSCAASGRTFTFYAMGWYRQAPGKERELVAAISTRGGRTYYADSVKGRFTISRDNAKNTVYFQMNSLKPDDTAVYYCASRARRRYYYWGQGTQVTVSS” is “high polyreactivity”.
Take “QVQLVESGGGLVQAGGSLRLSCAASGRTFTGNTMGWYRQAPGKERELVAAITKRGGSTYYADSVKGRFTISRDNAKNTVYLQMNSLKPEDTAVYYCAATSGVYRVGIIKYDYWGQGTQVTVSS”: the “polyreactivity (PSR sort gate)” value was “high polyreactivity”.
Take “QVQLVESGGGLVQAGGSLRLSCAASGRTFTGYAMGWDRQAPGKERELVAGISYRGGSTYYADSVKGRFTISRDNAKNTVYLQMNSLKQEVTAVYYCARDYSRHKGDYWGQGTQVTVSS”: the “polyreactivity (PSR sort gate)” value is given as “low polyreactivity”.
“QVQLVESGGGLVQAGGSLRLSCAASGRTFTGYAMGWYRQAPGKERELVAAISQGSGSTYYADSVKGRFTISRDNAKNTVYLQMNSLKPEDTAVYYCAAERAYYQTGHYYWGQGTQVTVSS”: the “polyreactivity (PSR sort gate)” value was “high polyreactivity”.
The entry for “QVQLVESGGGLVQAGGSLRLSCAASGRTFTGYAMGWYRQAPGKERELVASISGSGGRTNYADSVKGRFTISRDNAKNTVYLQMNSLKPEDTAVYYCAARYRTWFGYWGQGTQVTVSS” is “high polyreactivity”; for “QVQLVESGGGLVQAGGSLRLSCAASGRTFTHNVMGRYRQAPGKERELVAGISSTGGSTYYADSVKGRFTISRDNAKNTVYLQMNSLKPEDTAVYYCAVIGYHYSAISPPSQTRQGYDYWGQGTQVTVSS” it is “low polyreactivity”.
With “QVQLVESGGGLVQAGGSLRLSCAASGRTFTHNVMGWYRQAPGKERELVAGISSTGGSTYYADSVKGRFTISRDNAKNTVYLQMNSLKPEDTAVYYCAVIGYHYSAISPPSQTRQGYDYWGQGTQVTVSS” the entry was “low polyreactivity”; with “QVQLVESGGGLVQAGGSLRLSCAASGRTFTHYAMGWYRQAPGKERELVAVITTGGSTYYADSVKGRFTISRDNAKNTVYLQMNSLKPEDTAVYYCAATALSGLGYWGQGTQVTVSS”, “low polyreactivity”; with “QVQLVESGGGLVQAGGSLRLSCAASGRTFTIYAMGSYRQAPGKERELVAAITRSGGGTYYADSVKGRFTISRDNAKNTVYFQMKSLKPEDTAVYYCARDKHWFYGVIGPEDYWGQGTQVTVSS”, “low polyreactivity”.
On to “QVQLVESGGGLVQAGGSLRLSCAASGRTFTIYAMGWYRQAPGKEREFVAGITTGGSSTYYADSVKGRFTISRDNAKNTVYLQMNILKPEDTAVYYCAAVSYAWYDYWGQGTHVTVSS”, for which the “polyreactivity (PSR sort gate)” value is “low polyreactivity”.
With “QVQLVESGGGLVQAGGSLRLSCAASGRTFTKYAMGWYIQAPGKERELVASISTRGGSTYYADSVKGRFTISRDNAKNTVYLQMNSLKPEDTAVYYCNKGFRHRAPSSTPYDYWGQGTQVTVSS” the entry was “high polyreactivity”; with “QVQLVESGGGLVQAGGSLRLSCAASGRTFTKYAMGWYRQAPGKERELVATIRGRGGSTYYADSVKGRFTISRDNAKYTVYLQMNSLKPEDTAVYYCAADYWFSSRKYDYWGQGTQVTVSS”, “high polyreactivity”.
Consider “QVQLVESGGGLVQAGGSLRLSCAASGRTFTLNAMGWYRQAPGKERELVAAISGDTGSTYYADSVKGRFTISRDNAKNTVFLQMNSLKPEDTAVYYCATRHAGTWYYWFERYYWGQGTQVTVSS”, for which the “polyreactivity (PSR sort gate)” value was “high polyreactivity”.
In the case of “QVQLVESGGGLVQAGGSLRLSCAASGRTFTPNAMGWYRQAPGKERELVAAITSTGGRTYYADSVKGRFTISRDNAKNTVYLQMNSLKPEDTAVYYCAVSYRYLRKYGYWGQGTQVTVSS”, the “polyreactivity (PSR sort gate)” value is reported as “high polyreactivity”.
On to “QVQLVESGGGLVQAGGSLRLSCAASGRTFTPNAMGWYRQAPGKERELVASIRRGTSTYYADSVKGRFTISRDNAKNTVYLQMNSLKPEDTAVYYCAARPFVPRVGTYSYYWGQGTQVTVSS”, for which the “polyreactivity (PSR sort gate)” value is reported as “high polyreactivity”.
The entry for “QVQLVESGGGLVQAGGSLRLSCAASGRTFTPYDMGWYRPAPGKERELVAAITWRGGSTYYADSVKGRFTISRDNAKNTVYLQMNSLKPEDTAVYYCAKDRWTYAFRVGYGYWGQGTQVTVSS” is “high polyreactivity”; for “QVQLVESGGGLVQAGGSLRLSCAASGRTFTRNAMGWYRQAPGKERELVAAITGRGGSTYYADSVKGRFTISRDNAKNTVYLQMNSLKPEDTAVYYCARFYRYSRDYWGQGTQVTVSS” it is “high polyreactivity”.
For “QVQLVESGGGLVQAGGSLRLSCAASGRTFTRNAMGWYRQAPGKERELVAAITRGASTYYADSVKGRFTISRDNAKNTVYLQMNSLKPEDTAVYYCAVSQYRGIYRKYDYWGQGTQVTVSS”, the “polyreactivity (PSR sort gate)” value is “high polyreactivity”.
For the sequence “QVQLVESGGGLVQAGGSLRLSCAASGRTFTRYAMGWYRQAPGKERELVAAISRGGGGTYYADSVKGRFTISRDNAKNTVYLQMNSLKPEDTAVYYCAADGDRSAQRYTGYYYWGQGTQVTVSS”, the “polyreactivity (PSR sort gate)” value was “high polyreactivity”.
In the case of “QVQLVESGGGLVQAGGSLRLSCAASGRTFTRYAMGWYRQAPGKERELVAAISRRGGRTFYADSVKGRFTISRDNAKNTVYLQMNSLKPEDTAVYYCAADYKSSPPLPEYDYWGQGTQVTVSS”, the “polyreactivity (PSR sort gate)” value is “high polyreactivity”.
As to “QVQLVESGGGLVQAGGSLRLSCAASGRTFTRYAMGWYRQAPGKERELVAAISYIGGRTNYADSVKGRFTISRDNAKNTVYLQMNSLKPEDTAVYYCAASRPWVYYDGLDYWGQGTQVTVSS”, the “polyreactivity (PSR sort gate)” value is “high polyreactivity”.
The entry for “QVQLVESGGGLVQAGGSLRLSCAASGRTFTRYAMGWYRQAPGKERELVAAITSDGTTYYADSVKGRFTISRDNAKNTVYLQMNSLKPEDTAVYYCNAQYKFPDLGGYDYWGQGTQVTVSS” is “high polyreactivity”; for “QVQLVESGGGLVQAGGSLRLSCAASGRTFTRYAMGWYRQAPGKERELVAAITSSGRTYYADSVKGRFTISRDNAKNTVYLQMNSLKPEDTAVYYCAARGVYVKYYYWGQGTQVTVSS” it is “high polyreactivity”.
With “QVQLVESGGGLVQAGGSLRLSCAASGRTFTRYAMGWYRQAPGKERELVATITRGGSTNYADSVKGRFTISRDNAKNTVYLQMNSLKPEDTAVYYCAAGYFIRTRSRYRYDYWGQGTQVTVSS”, the “polyreactivity (PSR sort gate)” value is recorded as “high polyreactivity”.
The entry for “QVQLVESGGGLVQAGGSLRLSCAASGRTFTRYAMGWYRQAPGKERELVATITRGGSTNYADSVKGRFTISRDNSKNTVYLQMNSLKPEDTAVYYCAAGYFIRTRSRYRYDYWGQGTQVTVSS” is “high polyreactivity”; for “QVQLVESGGGLVQAGGSLRLSCAASGRTFTSNAMGWYRQAPGKERELVAAISNRGTRTYYADSVKGRFTISRDNAKNTVYLQMNSLKPEDTAVYYCAARVSTVFKRYYYWGQGTQVTVSS” it is “high polyreactivity”.
As for “QVQLVESGGGLVQAGGSLRLSCAASGRTFTSNAMGWYRQAPGKERELVAAITRGGSTYYADSVKGRFTISRDNAKITVYLQMNSLKPEDTAVYYCAAAYGGRLRYTAGYYWGQGTQVTVSS”, the “polyreactivity (PSR sort gate)” value is recorded as “high polyreactivity”.
Regarding “QVQLVESGGGLVQAGGSLRLSCAASGRTFTSYAMGWYRQEHGKERELVAGISSGGSTNYADSVKGRFTLSRDNAKNTVYLQMNSLKPEDTAVYYWAAGFSPGSYDAPTLAFEYWGQGTQVTVSS”, the “polyreactivity (PSR sort gate)” value is “low polyreactivity”.
The entry for “QVQLVESGGGLVQAGGSLRLSCAASGRTFTTNAMGWYRQAPGKERELVAAITIGDDTYYADSVKGRFTISRDNAKNTVYLQMNSLKPEDTEVYYCSADYKRVPFVTQYVSKDGYWGHGTQVTVSS” is “low polyreactivity”; for “QVQLVESGGGLVQAGGSLRLSCAASGRTFTTYAMGWYRQAPGKERELVAAISGSGGSTYYADSVKGRFTISRDNAKNTVYLQMNSLKPEDTAVYYCATAYYYHGGYYYPYDDDWGQGTQVTVSS” it is “low polyreactivity”; for “QVQLVESGGGLVQAGGSLRLSCAASGRTFTVYAMGWYRQAPGKERELVAAISSGGITYYADSVKGRFTISRDNAKNTVYLQMNSLKPEDTAVYYCNTKSGKARYVFGYWGQGTQVTVSS” it is “low polyreactivity”.
